Data published in patent US20240307370A1, “SIGMA RECEPTOR LIGANDS FOR TREATING SARS-COV-2 INFECTION” (University of Florida Research Foundation, Incorporated, priority 2021, published 2024).

Experiments:
SARS-CoV-2 [1] = format: cell-based; conditions: 400 μg/ml, 48 hours after infection, vs DMSO alone
SARS-CoV-2 [2] = format: cell-based; conditions: 400 μg/ml, H23-hACE2, MOI 0.01, 48 hpi

B1: lactoferrin: host-iron sequestration protein; lactoferrin from human milk, MilliporeSigma (protein, UniProt P02788 20-710, looked up)
Lactotransferrin: GRRRSVQWCAVSQPEATKCFQWQRNMRKVRGPPVSCIKRDSPIQCIQAIAENRADAVTLDGGFIYEAGLAPYKLRPVAAEVYGTERQPRTHYYAVAVVKKGGSFQLNELQGLKSCHTGLRRTAGWNVPIGTLRPFLNWTGPPEPIEAAVARFFSASCVPGADKGQFPNLCRLCAGTGENKCAFSSQEPYFSYSGAFKCLRDGAGDVAFIRESTVFEDLSDEAERDEYELLCPDNTRKPVDKFKDCHLARVPSHAVVARSVNGKEDAIWNLLRQAQEKFGKDKSPKFQLFGSPSGQKDLLFKDSAIGFSRVPPRIDSGLYLGSGYFTAIQNLRKSEEEVAARRARVVWCAVGEQELRKCNQWSGLSEGSVTCSSASTTEDCIALVLKGEADAMSLDGGYVYTAGKCGLVPVLAENYKSQQSSDPDPNCVDRPVEGYLAVAVVRRSDTSLTWNSVKGKKSCHTAVDRTAGWNIPMGLLFNQTGSCKFDEYFSQSCAPGSDPRSNLCALCIGDEQGENKCVPNSNERYYGYTGAFRCLAENAGDVAFVKDVTVLQNTDGNNNEAWAKDLKLADFALLCLDGKRKPVTEARSCHLAMAPNHAVVSRMDKVERLKQVLLHQQAKFGRNGSDCPDKFCLFQSETKNLLFNDNTECLARLHGKTTYEKYLGPQYVAGITNLKKCSTSPLLEACEFLRK
With B1 the “decrease of N-protein RNA copies (qPCR)” value (SARS-CoV-2 [1]) was 28.0% and the “effect on SARS-CoV-2 concentration (TCID50), words” value (SARS-CoV-2 [2]) was “ineffective”.
